Numbering of substitutions follows the chain as printed. Names may count otherwise.

Assay [1] has as its target T1, full length human 5T4 (SEQ ID NO: 1) on cells (human, UniProt Q13641 32-420).
T1 construct: Uniprot Q13641; residues 1-31 are the signal peptide; Used both for transfected HEK-293 cells and for 5T4-expressing human tumor cell lines
T1 sequence: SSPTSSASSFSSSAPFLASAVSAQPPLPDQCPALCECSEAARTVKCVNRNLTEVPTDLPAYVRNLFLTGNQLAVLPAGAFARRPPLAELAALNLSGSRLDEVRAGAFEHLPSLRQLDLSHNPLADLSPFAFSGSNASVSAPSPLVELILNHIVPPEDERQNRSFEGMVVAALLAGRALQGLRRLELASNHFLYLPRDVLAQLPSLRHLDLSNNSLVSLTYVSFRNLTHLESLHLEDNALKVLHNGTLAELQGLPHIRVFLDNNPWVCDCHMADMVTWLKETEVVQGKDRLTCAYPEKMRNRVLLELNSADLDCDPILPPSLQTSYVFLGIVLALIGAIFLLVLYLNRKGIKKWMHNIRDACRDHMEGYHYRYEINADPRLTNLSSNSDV
Briefly: flow cytometry, HeLa cells, PE secondary [II)G]. A general note: Flow cytometry measures light scatter and fluorescence of single cells or particles in a stream.

For assay [2], the target named is T2, full length cynomolgus monkey 5T4 on transfected HEK-293 cells (cynomolgus monkey, UniProt Q4R8Y9 35-420).
T2 construct: Uniprot Q4R8Y9; residues 1-34 are the signal peptide; also called cynomolgus 5T4
T2 sequence: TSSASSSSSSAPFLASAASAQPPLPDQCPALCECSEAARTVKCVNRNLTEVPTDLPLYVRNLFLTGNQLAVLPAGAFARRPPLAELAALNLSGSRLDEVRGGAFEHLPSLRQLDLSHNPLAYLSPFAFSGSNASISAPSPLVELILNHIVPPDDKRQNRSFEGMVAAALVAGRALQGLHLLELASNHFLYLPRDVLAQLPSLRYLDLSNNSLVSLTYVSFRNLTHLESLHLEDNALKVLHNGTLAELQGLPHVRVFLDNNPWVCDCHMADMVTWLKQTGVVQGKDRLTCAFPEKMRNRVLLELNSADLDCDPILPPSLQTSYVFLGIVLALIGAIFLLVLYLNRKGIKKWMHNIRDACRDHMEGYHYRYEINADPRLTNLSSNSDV
The assay is described as follows: flow cytometry, HEK-293 cells transfected with cynomolgus monkey 5T4, PE secondary [II)H].

The target in assay [3] is T1, full length human 5T4 (SEQ ID NO: 1) on …. Briefly: flow cytometry, HeLa cells, PE secondary [II)D].
Assay [4] shares this target. Briefly: flow cytometry, MDA-MB-231 cells, PE secondary [III)D].
Assay [5] deals with T2, full length cynomolgus monkey 5T4 on …. Briefly: flow cytometry, HEK-293 cells transfected with cynomolgus monkey 5T4, PE secondary [II)D].
Assay [6] has as its target T3, human 5T4ECDHis (mature protein of SEQ ID NO: 99) (human, UniProt Q13641 32-355).
T3 construct: ECD of human 5T4 (aa 1-355 of Uniprot Q13641) with C-terminal His tag; residues 1-31 are the signal peptide; also called ECD of human 5T4 with a C-terminal His tag
T3 sequence: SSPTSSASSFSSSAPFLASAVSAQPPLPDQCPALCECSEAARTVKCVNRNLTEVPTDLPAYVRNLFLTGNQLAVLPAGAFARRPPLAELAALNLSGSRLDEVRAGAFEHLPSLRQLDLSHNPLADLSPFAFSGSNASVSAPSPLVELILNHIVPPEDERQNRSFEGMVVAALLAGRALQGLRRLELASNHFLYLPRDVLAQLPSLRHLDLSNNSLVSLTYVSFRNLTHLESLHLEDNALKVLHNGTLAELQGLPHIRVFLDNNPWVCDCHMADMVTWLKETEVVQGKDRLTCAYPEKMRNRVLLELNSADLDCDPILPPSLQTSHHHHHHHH
Briefly: BLI cross-block; competitor (immobilised): IgG1-5T4-A3-F405L.

For assay [7], the target named is T3, human 5T4ECDHis (mature protein of SEQ …). Briefly: BLI cross-block; competitor (immobilised): IgG1-5T4-085-FEAR.
For assay [8] the target is unchanged. Briefly: BLI cross-block; competitor (immobilised): IgG1-5T4-059-FEAR.
Assay [9] shares this target. Briefly: BLI cross-block; competitor (immobilised): IgG1-5T4-A1-F405L.
Assay [10] shares this target. Briefly: BLI cross-block; competitor (immobilised): IgG1-5T4-226-FEAR.
Assay [11] deals with T2, full length cynomolgus monkey 5T4 on …. Briefly: flow cytometry, HEK-293 cells transfected with cynomolgus monkey 5T4, PE secondary [II)F].
The target in assay [12] is T3, human 5T4ECDHis (mature protein of SEQ …). Briefly: BLI cross-block; competitor (immobilised): IgG1-5T4-127-FEAR.
Assay [13] addresses T1, full length human 5T4 (SEQ ID NO: 1) on …. The assay is described as follows: flow cytometry, MDA-MB-231 cells, PE secondary [III)E].
Assay [14] deals with T3, human 5T4ECDHis (mature protein of SEQ …). The assay is described as follows: BLI cross-block; competitor (immobilised): IgG1-5T4-076-FEAR.
Assay [15] shares this target. The assay is described as follows: BLI cross-block; competitor (immobilised): IgG1-5T4-106-FEAR.
The target is the same in assay [16]. Briefly: BLI cross-block; competitor (immobilised): IgG1-5T4-207-FEAR.
Assay [17] has the same target. Briefly: BLI cross-block; competitor (immobilised): IgG1-5T4-H8-FEAR.
The target in assay [18] is T2, full length cynomolgus monkey 5T4 on …. Briefly: flow cytometry, HEK-293 cells transfected with cynomolgus monkey 5T4, PE secondary [II)G].
In assay [19] the target is T1, full length human 5T4 (SEQ ID NO: 1) on …. The assay is described as follows: flow cytometry, HEK-293 cells transfected with human 5T4, FITC secondary [I)B].
The target is the same in assay [20]. The assay is described as follows: flow cytometry, HEK-293 cells transfected with human 5T4, PE secondary [II)B].
Assay [21] shares this target. Briefly: flow cytometry, HeLa cells, FITC secondary [I)C].
Assay [22] shares this target. The assay is described as follows: flow cytometry, HeLa cells, PE secondary [II)B].
For assay [23] the target is unchanged. The assay is described as follows: flow cytometry, MDA-MB-231 cells, FITC secondary [I)C].
Assay [24] has as its target T2, full length cynomolgus monkey 5T4 on …. The assay is described as follows: flow cytometry, HEK-293 cells transfected with cynomolgus monkey 5T4, PE secondary [II)B].
The target is the same in assay [25]. Briefly: flow cytometry, HEK-293 cells transfected with cynomolgus monkey 5T4, FITC secondary [I)B].
For assay [26], the target named is T1, full length human 5T4 (SEQ ID NO: 1) on …. The assay is described as follows: flow cytometry, MDA-MB-231 cells, PE secondary [III)B].

B1: bsIgG1-huCD3-H101G-FEALx5T4-A1-FEAR (bispecific antibody)
heavy: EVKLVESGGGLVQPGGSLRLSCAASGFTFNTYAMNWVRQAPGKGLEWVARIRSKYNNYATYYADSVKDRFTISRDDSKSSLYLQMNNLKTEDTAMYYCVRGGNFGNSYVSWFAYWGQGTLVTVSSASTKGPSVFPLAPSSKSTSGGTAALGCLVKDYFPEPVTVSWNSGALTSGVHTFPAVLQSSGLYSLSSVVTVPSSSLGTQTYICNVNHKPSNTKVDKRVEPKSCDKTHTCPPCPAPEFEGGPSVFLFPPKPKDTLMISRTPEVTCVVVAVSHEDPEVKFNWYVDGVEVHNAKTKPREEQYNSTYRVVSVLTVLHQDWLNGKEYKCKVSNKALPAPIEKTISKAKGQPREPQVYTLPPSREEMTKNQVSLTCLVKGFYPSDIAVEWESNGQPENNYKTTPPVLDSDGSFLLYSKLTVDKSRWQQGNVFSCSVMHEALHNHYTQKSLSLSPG
light: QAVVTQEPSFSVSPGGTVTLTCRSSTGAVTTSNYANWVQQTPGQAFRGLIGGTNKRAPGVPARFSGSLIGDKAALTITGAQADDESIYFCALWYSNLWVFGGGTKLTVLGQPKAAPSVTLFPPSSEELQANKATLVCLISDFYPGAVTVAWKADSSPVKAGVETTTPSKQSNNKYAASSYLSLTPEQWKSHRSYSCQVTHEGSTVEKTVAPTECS
VH: QIQLVQSGPELKKPGETVKISCKASGYTFTNFGMNWVKQGPGEGLKWMGWINTNTGEPRYAEEFKGRFAFSLETTASTAYLQINNLKNEDTATYFCARDWDGAYFFDYWGQGTTLTVSS
VL: SIVMTQTPKFLLVSAGDRVTITCKASQSVSNDVAWYQQKPGQSPKLLINFATNRYTGVPNRFTGSGYGTDFTFTISTVQAEDLALYFCQQDYSSPWTFGGGTKLEIK
notes: Fab-arm exchange product
For B1, the binding result in assay [1] and in assay [2] was “binds” each time.

B2: IgG1-5T4-A1-FEAR (antibody, V domains shown)
VH: B1 VH
VL: B1 VL
notes: Based on A1 from Wyeth; IgG1 with L234F, L235E, D265A, K409R (FEAR)
What is called EC50 (read off the curve) is the concentration giving half of the maximal effect. As to B2, in assay [1], the binding result was “binds”. Besides, the “EC50 (read off the curve)” value in assay [2] was around 0.1 µg/mL.

B3: bsIgG1-huCD3-H101G-FEALx5T4-106-FEAR (bispecific antibody)
heavy: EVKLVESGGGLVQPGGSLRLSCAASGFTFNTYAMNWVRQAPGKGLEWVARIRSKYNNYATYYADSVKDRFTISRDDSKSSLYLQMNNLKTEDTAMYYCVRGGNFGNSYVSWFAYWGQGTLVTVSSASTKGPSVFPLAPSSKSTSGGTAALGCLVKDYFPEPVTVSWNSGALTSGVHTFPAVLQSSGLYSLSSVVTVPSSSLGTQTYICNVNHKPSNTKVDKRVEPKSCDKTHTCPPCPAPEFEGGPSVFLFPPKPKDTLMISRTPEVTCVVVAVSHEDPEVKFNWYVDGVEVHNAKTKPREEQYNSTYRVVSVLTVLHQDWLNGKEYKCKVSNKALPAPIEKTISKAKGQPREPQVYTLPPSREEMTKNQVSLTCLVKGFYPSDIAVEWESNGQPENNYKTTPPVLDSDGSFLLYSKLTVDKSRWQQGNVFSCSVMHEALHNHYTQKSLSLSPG
light: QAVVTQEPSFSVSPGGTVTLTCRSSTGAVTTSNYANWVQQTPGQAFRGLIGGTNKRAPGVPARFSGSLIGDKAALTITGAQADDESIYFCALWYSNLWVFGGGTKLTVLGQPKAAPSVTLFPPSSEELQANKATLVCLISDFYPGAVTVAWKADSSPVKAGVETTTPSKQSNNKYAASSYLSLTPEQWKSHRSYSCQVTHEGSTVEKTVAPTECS
VH: EVQLVQSGAEVKKPGESLKISCKGSGYRFTSYWIGWVRQMPGKGLEWMGIIYPGDSDARYSPSFQGQVTISADKSISTAYLQWSSLKASDTGMYYCARSVLFDYWGQGTLVTVSS
VL: AIQLTQSPSSLSASVGDRVTITCRASQGISSALAWYQQKPGKAPKLLIYDVSNLESGVPSRFSGSGSGTDFTLTISSLQPEDFATYYCQQFNSYPHTFGQGTKLEIK
notes: Fab-arm exchange product
For the molecule B3, the “EC50 (read off the curve)” value in assay [3] and in assay [4] was around 0.1 µg/mL each time. Further, in [5], the binding result is reported as “binds”.

B4: IgG1-5T4-085-FEAR (antibody, V domains shown)
VH: EVQLLESGGGLVQPGGSLRLSCAASGFTFSSYAMSWVRQAPGKGLEWVSAISGSGGSTYNADSVKGRFTIFRDNSKNTLYLHMNSLRAEDTAVYYCARDPGYNNVEYLDHWGQGTLVTVSS
VL: B3 VL with V51A, N53S, H96L, Q100G, L104V
notes: Monospecific, bivalent human IgG1 kappa with L234F, L235E, D265A, K409R (FEAR)
B4: the corrected association response is 0 nm in assay [6]; -0.01 nm in assay [7]; -0.02 nm in assay [8]; 0.72 nm in assay [9]; 1.35 nm in [10]; -0.01 nm in assay [12]. For the same molecule, the corrected association response in [14] is -0.02 nm; in [15], -0.04 nm; in assay [16] it was 1.03 nm; in assay [17] it was -0.02 nm. For the same molecule, the “EC50 (read off the curve)” value in assay [11] is around 0.008 µg/mL; in assay [13] it was around 0.04 µg/mL.

B5: bsIgG1-huCD3-H101G-FEALx5T4-127-FEAR (bispecific antibody)
heavy: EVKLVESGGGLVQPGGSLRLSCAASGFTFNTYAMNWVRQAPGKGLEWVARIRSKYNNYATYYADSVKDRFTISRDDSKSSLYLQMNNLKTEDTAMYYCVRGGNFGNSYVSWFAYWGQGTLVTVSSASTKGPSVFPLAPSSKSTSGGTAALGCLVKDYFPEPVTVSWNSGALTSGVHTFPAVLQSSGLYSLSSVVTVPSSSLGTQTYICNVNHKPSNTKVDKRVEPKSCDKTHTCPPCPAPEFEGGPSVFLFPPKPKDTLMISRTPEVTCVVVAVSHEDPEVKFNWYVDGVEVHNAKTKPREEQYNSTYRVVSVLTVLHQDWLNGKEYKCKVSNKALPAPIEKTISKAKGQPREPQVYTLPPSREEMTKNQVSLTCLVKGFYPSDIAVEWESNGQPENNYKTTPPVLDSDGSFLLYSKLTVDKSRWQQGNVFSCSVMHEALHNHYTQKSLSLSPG
light: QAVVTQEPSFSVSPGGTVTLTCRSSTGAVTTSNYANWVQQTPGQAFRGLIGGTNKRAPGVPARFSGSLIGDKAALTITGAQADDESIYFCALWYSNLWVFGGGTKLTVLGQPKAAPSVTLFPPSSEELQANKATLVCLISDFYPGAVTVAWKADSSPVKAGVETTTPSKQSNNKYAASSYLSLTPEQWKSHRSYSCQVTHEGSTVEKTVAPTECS
VH: EVQLLESRGGLVQPGGSLRLSCAASGFTFSSYAMSWVRQAPGKGLEWVSTISGSGGSTYYADSVKGRFTISRDNSKKTLYLQMNSLRAEDTAVYYCAKDWGSGSYPAEYFQHWGQGTLVTVSS
VL: EIVLTQSPATLSLSPGERATLSCRASQSVSSYLAWYQQKPGQAPRLLIYDASNRATGIPARFSGSGSGTDFTLTISSLEPEDFAVYYCQQRSNWLMYTFGQGTKLEIK
notes: Fab-arm exchange product
Take B5: the “EC50 (read off the curve)” value in assay [18] was around 0.1 µg/mL.

B6: bsIgG1-huCD3-H101G-FEALx5T4-226-FEAR (bispecific antibody)
heavy: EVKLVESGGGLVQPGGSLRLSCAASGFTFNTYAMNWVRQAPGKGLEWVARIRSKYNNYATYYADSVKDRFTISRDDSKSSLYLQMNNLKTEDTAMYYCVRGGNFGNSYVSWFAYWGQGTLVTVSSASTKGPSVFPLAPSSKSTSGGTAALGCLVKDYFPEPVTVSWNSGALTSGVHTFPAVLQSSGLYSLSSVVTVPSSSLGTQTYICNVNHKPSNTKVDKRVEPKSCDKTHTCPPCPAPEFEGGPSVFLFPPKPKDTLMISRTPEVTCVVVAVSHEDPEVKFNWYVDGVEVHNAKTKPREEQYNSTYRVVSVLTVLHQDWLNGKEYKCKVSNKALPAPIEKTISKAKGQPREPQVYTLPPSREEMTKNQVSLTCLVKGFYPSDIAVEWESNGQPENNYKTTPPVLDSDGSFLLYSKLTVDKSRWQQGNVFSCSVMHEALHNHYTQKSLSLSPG
light: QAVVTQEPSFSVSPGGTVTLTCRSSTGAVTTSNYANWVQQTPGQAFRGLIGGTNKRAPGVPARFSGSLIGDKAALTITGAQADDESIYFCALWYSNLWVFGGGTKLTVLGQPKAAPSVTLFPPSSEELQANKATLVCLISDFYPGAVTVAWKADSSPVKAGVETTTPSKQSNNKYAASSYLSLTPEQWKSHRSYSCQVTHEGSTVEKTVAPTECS
VH: QVQLQQWGAGLLKPSETLSLTCAVYGGSFSGYYWSWIRQPPGKGLEWIGEIDHSGSTNYNPSLKSRVTISVDTSKNQFSLKLSSVTAADTAVYYCAAWFGELWDYYYGMDVWGQGTTVTVSS
VL: EIVLTQSPATLSLSPGERATLSCRASQSVSSFLAWYQQKPGQAPRLLIYDASNRATGIPARFSGSGSGTDFTLTISSLEPEDFAVYYCQQRSNWPLTFGQGTRLEIK
notes: Fab-arm exchange product
Regarding B6, the 50% effective concentration (EC50 (read off the curve)) in assay [19] was around 0.2 µg/mL; in assay [20], around 0.1 µg/mL; in assay [21], around 0.02 µg/mL; in assay [22], around 0.04 µg/mL; in [23], around 0.1 µg/mL; in assay [24], around 0.06 µg/mL. Besides, the figures for the “EC50 (read off the curve)” value in assay [25] and in [26] were around 0.1 µg/mL and around 0.04 µg/mL, respectively.
